These results are taken from patent US20240084005A1 (ALLAKOS, published 2024).

One assay has as its target T1, Siglec-6 ECD Fc protein (human, UniProt O43699 27-347).
T1 construct: also called Siglec-6 full ECD fused to a human Fc; not shown: human Fc
Briefly: BLI (Octet Red 384), bivalent IgG on immobilized Siglec-6 ECD Fc. On the procedure:
Bivalent binding affinities of IgG for Siglec-6 mAbs were measured by biolayer interferometry using a FortéBio Octet Red 384 instrument using immobilized Siglec-6 ECD Fc protein.
(In general: In BLI a coated tip is dipped into the sample, and binding shifts an interference pattern.)

Assay [1] has as its target T2, Siglec-6 domains 1 and 2 fused to a human Fc (human, UniProt O43699 27-237).
T2 construct: also called domains 1 and 2 fusion protein; not shown: human Fc
Briefly: ELISA on Siglec-6 domain-human Fc fusions (Domain Mapping = 3). On the procedure:
(§1) Domain mapping was assessed by ELISA using recombinantly expressed Siglec-6 extracellular domains fused to a human Fc containing the full ECD, domains 1 and 2, or domain 1. Siglec-6 mAbs were tested for binding to each of these domain fusion proteins and assigned domains based on their specific binding properties. Siglec-6 mAbs that bound to all three fusion proteins were assigned domain 1 binders, mAbs that bound to full ECD and domains 1 and 2 were assigned domain 2 binders, and mAbs that bound to only the full ECD protein were assigned domain 3 binders.
Background: An ELISA detects its analyte on a solid surface through an enzyme-linked reagent.

Assay [2] concerns the target T3, Siglec-6 domain 1 fused to a human Fc (human, UniProt O43699 27-147).
T3 construct: also called domain 1 fusion protein; not shown: human Fc
The description is as above. On the procedure:
as §1

The target of assay [3] is T3, Siglec-6 domain 1 fused to a human Fc. Put plainly: ELISA on Siglec-6 domain-human Fc fusions (Domain Mapping = 2). On the procedure: as §1
Assay [4] has as its target T4, Siglec-6 (antigen of Example 8) (human, UniProt O43699 27-347, limits assumed). Put plainly: Siglec-6 binding ELISA after 2 weeks of forced degradation (elevated temperature, low pH). On the procedure:
AK20 and AK21 were further evaluated in a forced degradation stability study. AK20 and AK21 (both using a wild-type human IgG1 Fc region with normal fucosylation) were incubated for 2 weeks at elevated temperatures and low pH followed by assessment of activity using a Siglec-6 binding ELISA.

Assay [5] concerns the target T4, Siglec-6 (antigen of Example 8). Put plainly: Siglec-6 binding ELISA after 1 week of forced degradation (elevated temperature, low pH); 1 week of forced degradation (elevated temperatures and low pH).
Assay [6] has the same target. Put plainly: BLI, monovalent Fab.
For assay [7] the target is unchanged. Put plainly: Siglec-6 binding ELISA after 1 week of forced degradation (elevated temperature, low pH).

T2 sequence (O43699 27-237 limits assumed): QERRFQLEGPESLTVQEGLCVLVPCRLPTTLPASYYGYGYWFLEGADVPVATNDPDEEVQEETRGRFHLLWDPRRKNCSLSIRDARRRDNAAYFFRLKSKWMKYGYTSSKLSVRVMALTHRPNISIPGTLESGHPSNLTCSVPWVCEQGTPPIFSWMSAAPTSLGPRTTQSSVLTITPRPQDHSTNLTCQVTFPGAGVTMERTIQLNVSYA
T3 sequence (O43699 27-147 limits assumed): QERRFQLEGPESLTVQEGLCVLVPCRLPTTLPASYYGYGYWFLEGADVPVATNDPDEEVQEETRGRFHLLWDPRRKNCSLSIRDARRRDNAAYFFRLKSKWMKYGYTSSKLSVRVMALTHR
T4 sequence (O43699 27-347 limits assumed): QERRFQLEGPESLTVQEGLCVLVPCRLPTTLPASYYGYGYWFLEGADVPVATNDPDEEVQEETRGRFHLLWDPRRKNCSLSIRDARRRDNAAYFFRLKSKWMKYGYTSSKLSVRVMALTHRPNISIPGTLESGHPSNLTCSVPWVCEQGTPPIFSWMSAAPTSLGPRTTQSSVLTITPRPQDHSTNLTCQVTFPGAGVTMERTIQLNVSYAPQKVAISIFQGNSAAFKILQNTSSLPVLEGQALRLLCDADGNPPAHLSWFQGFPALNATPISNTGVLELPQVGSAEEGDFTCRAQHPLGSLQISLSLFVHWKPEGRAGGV
T1 sequence (O43699 27-347): as the sequence (O43699 27-347 limits assumed) above

B1: AK14 (antibody, V domains shown)
VH: QIQLVQSGPELKKPGETVKISCKASGYTFTTYGMSWVKQAPGKGLKWMGWINTYSGVPTYADDFKGRFAFSLETSATTAYLQINNLKNEDTATYFCARLAYFGYYFDFWGQGTTLTVSS
VL: DIVMTQSQKFMSTTVGDRVSFTCKASQNVGSAVAWYQQKPGQSPKLLIYSASNRYTGVPDRFTGSGSGTDFTLTISNMQSEDLADYFCQQYSSYPYTFGGGTKLEIK
notes: also called anti-Siglec-6 mAb AK14
In the assay with Siglec-6 ECD Fc protein, B1 gave a Kd of 0.072 nM. The binding result in assay [1] and in assay [2] was “no binding” in each case.

B2: AK09 (antibody, V domains shown)
VH: QIQLVQSGPELKKPGETVKISCKASGYTLTTYGMSWVKQAPGKGLKWMGWINTYSGVPTYADEFKGRFAFSLETSASTAYLQINNLKNEDTATYFCARLGYYGYYFDYWGQGTTLTVSS
VL: DVVLTQSPATLSVTPGDSVSLSCRASQSIRNNLHWYQQKSHESPRLLIKYIFQSISGIPSRFSGSGSGTEFTLSINSVETEDFGMYFCQQSDSWPHVTFGAGTKLELI
notes: also called anti-Siglec-6 mAb AK09
As to B2, the Kd with Siglec-6 ECD Fc protein is 0.11 nM. Besides, the binding result in assay [1] and in assay [2] was “no binding” in each case.

B3: AK13 (antibody, V domains shown)
VH: QIQLVQSGPELKKPGETVKISCKASGYTFTTYGMSWVKQAPGKGLKWMGWINTYSGVPTYADDFKGRFAFSLETSATTAYLQINNLKNEDTATYFCARLAYFGYYFDFWGQGTTLTVSS
VL: DIVMTQSQKFMSTTVGDRVSFTCKASQNVGSAVTWYQQKPGQSPKLLIYSASNRYTGVPDRFTGSGSGTDFTLTISNMQSEDLADYFCQQYSSYPYTFGGGTKLEIK
notes: also called anti-Siglec-6 mAb AK13
In the assay with Siglec-6 ECD Fc protein, B3 gave a Kd of 0.063 nM. The binding result in assay [1] and in assay [2] was “no binding” each time.

B4: AK15 (antibody, V domains shown)
VH: QVQLKESGPGLVAPSQSLSITCTVSGFSLTSYGVSWVRQPPGKGLEWLGIIWGDGSTNYHSALISRLSISKDKSKSQVFLKLNSLQADDTATYYCAKGLSDWYFDVWGTGTTVTVSS
VL: QIVLSQSPAILSASPGEKVTMTCRASSSVSYMHWYQQKPGSSPKPWIYATSNLASGVPARFSGSGSGTSYSLTISRVEAEDAATYYCQQWSSNPYTFGGGTKLEIK
notes: also called anti-Siglec-6 mAb AK15
B4: the Kd with Siglec-6 ECD Fc protein was 1.04 nM. Moreover, the binding result in assay [1] and in assay [2] was “no binding” in each case.

B5: AK12 (antibody, V domains shown)
VH: QVQLKQSGPGLVQPSQSLSITCTVSGFSLTSYGVHWVRQSPGKGLEWLGVIWGGGSTDYNAGFISRLSISKDNSKSQVFFKMNSLQADDTAIYYCARALSDWYFDVWGTGTTVTVSS
VL: QIVLSQSPAILSASPGEKVTMTCRASSSVSYMHWYQQKPGSSPKPWIYATSNLASGVPARFSGSGSGTSYSLTISRVEAEDAATYYCQQWSSNPLTFGAGTKLELK
notes: also called anti-Siglec-6 mAb AK12
As to B5, the Kd with Siglec-6 ECD Fc protein was 0.087 nM. Further, the binding result in assay [1] and in assay [2] was “no binding” in each case.

B6: AK08 (antibody, V domains shown)
VH: QVQLKESGPGLVAPSQSLSITCTVSGFSLTSYGVNWIRQPPGKGLEWLGVIWGDGSTNYHSALISRLSISKDNSKSQVFLKLNSLQTDDTATYYCAKALSDWYFDVWGTGTTVTVSS
VL: QIVLSQSPAILSASPGEKVTMTCRASSSVSYMHWYQQKPGSSPKPWIYATSNLASGVPARFSGSGSGTSYSLTISRVEAEDAATYYCQQWSSNPYTFGGGTKLEIK
notes: also called anti-Siglec-6 mAb AK08
In the assay with Siglec-6 ECD Fc protein, B6 yielded a Kd of 0.261 nM. Moreover, the binding result in assay [1] and in assay [2] was “no binding” each time.

B7: AK10 (antibody, V domains shown)
VH: EVQLQQSGPELMKPGASVKISCKASGYTFTDYYMNWVKQSHGKSLEWIGDINPKIGDTIYNQKFKGKATLTVDKSSSTAYMELRSLTSEDSAVYYCARWDYYGSSLFDYWGQGTTLTVSS
VL: DIVMTQSHKFMSTSVGDRVSITCKASQDVTTAVAWYQQKPGQSPKLLIYWASTRHTGVPDRFTGTGSGTDYTLTISNVQAEDLALYYCQQHYSTPYTFGGGTKLEIK
notes: also called anti-Siglec-6 mAb AK10
For the molecule B7, in the assay with Siglec-6 ECD Fc protein, the Kd turned out to be 0.084 nM. In addition, the binding result in assay [3] is “no binding”.

B8: AK11 (antibody, V domains shown)
VH: EVMLVESGGGLVKPGGSLKLSCAASGFSFSTYVMSWVRQTPEKRLEWVASISGGGSNTYYPDSVKGRFTISRDNAKNTLYLQMSSLRSEDTALYYCARREVVVYWYFDVWGTGTTVTVSS
VL: DIQMTQSPASLSVSVGETVTITCRASENIYSNLAWYQQKQGKSPQLLVFSAKNLADGVPSRFGGSGSGTQYSLKINSLQSEDFGTYYCQHFWGTPLTFGAGTKLELK
notes: also called anti-Siglec-6 mAb AK11
B8 displayed a Kd in the assay with Siglec-6 ECD Fc protein of 0.002 nM. Also, in assay [3], the binding result was “no binding”.

B9: AK20 (wild-type human IgG1 Fc) (antibody, V domains shown)
VH: QVQLQESGPGLVKPSETLSLTCTVSGFSLTSYGVSWIRQPPGKGLEWIGVIWHDGSTSYHPSLKSRVTISRDTSKNQVSLKLSSVTAADTAVYYCASDGYSGTFAYWGQGTLVTVSS
VL: QIVVTQSPATLSLSPGERATLSCTASSSVSSSYLHWYQQKPGQAPRLLIYSTSILASGIPARFSGSGSGTDFTLTISSLQPEDFAVYYCHQYHRSPYTFGQGTKLEIK
notes: Tested after forced degradation
In general, EC50 refers to the concentration that produces a half-maximal response. The low end stands for an effect from little substance, the high end for a need for much substance. Take B9: the half-maximal effective concentration (EC50) in assay [4] stood at 6.4 ng/mL; in assay [5], 6.5 ng/mL.

B10: AK20 Fab (Fab, V domains shown)
VH: QVQLQESGPGLVKPSETLSLTCTVSGFSLTSYGVSWIRQPPGKGLEWIGVIWHDGSTSYHPSLKSRVTISRDTSKNQVSLKLSSVTAADTAVYYCASDGYSGTFAYWGQGTLVTVSS
VL: QIVVTQSPATLSLSPGERATLSCTASSSVSSSYLHWYQQKPGQAPRLLIYSTSILASGIPARFSGSGSGTDFTLTISSLQPEDFAVYYCHQYHRSPYTFGQGTKLEIK
As usually defined, the koff is the rate constant with which the complex falls apart. Read a high koff as fast dissociation. By kon is commonly meant the rate constant with which the complex forms. A higher kon goes with fast association. In assay [6], B10 returned a Kd of 0.12 nM, a koff of 9.1e-05 s⁻¹ and a kon of 750000 M⁻¹ s⁻¹.

B11: AK19 Fab (Fab, V domains shown)
VH: QVQLQESGPGLVKPSETLSLTCTVSGFSLTSYGVSWIRQPPGKGLEWIGVIWHDGSTSYHSTLISRVTISRDTSKNQVSLKLSSVTAADTAVYYCASDGYSGTFAYWGQGTLVTVSS
VL: QIVVTQSPATLSLSPGERATLSCTASSSVSSSYLHWYQQKPGQAPRLLIYSTSILASGIPARFSGSGSGTDFTLTISSLQPEDFAVYYCHQYHRSPYTFGQGTKLEIK
In assay [6], B11 came in with a Kd of 0.032 nM, a koff of 2.6e-05 s⁻¹ and a kon of 830000 M⁻¹ s⁻¹.

B12: AK21 Fab (Fab, V domains shown)
VH: QVQLQESGPGLVKPSETLSLTCTVSGFSLSSYGVSWIRQPPGKGLEWIGVIWHDGSTNYNPSLKSRVTISRDTSKNQVSLKLSSVTAADTAVYYCASDGYSGTFAYWGQGTLVTVSS
VL: QIVVTQSPATLSLSPGERATLSCTASSSVSSSYLHWYQQKPGQAPRLLIYSTSILASGIPARFSGSGSGTDFTLTISSLQPEDFAVYYCHQYHRSPYTFGQGTKLEIK
As to B12, in assay [6], the Kd was determined as 0.04 nM, the koff was 3.7e-05 s⁻¹ and the kon came out at 920000 M⁻¹ s⁻¹.

B13: AK21 (wild-type human IgG1 Fc) (antibody, V domains shown)
VH: QVQLQESGPGLVKPSETLSLTCTVSGFSLSSYGVSWIRQPPGKGLEWIGVIWHDGSTNYNPSLKSRVTISRDTSKNQVSLKLSSVTAADTAVYYCASDGYSGTFAYWGQGTLVTVSS
VL: QIVVTQSPATLSLSPGERATLSCTASSSVSSSYLHWYQQKPGQAPRLLIYSTSILASGIPARFSGSGSGTDFTLTISSLQPEDFAVYYCHQYHRSPYTFGQGTKLEIK
notes: as for B9
For B13, the EC50 was 9.3 ng/mL in assay [4] and 9.1 ng/mL in assay [7].
